Test results from patent publication US6946588B2, “Nucleic acid encoding a modified threonine deaminase and methods of use” (Monsanto Technology LLC, priority 1996, dated 2005).

Legend:
E. coli DH5α cells = assay: PHA production by transformed E. coli DH5α on glucose and propionate (GC analysis); assay type: cell-based; conditions: Set 2 versus Set 1
Method: E. coli DH5α cells contining both sets of plasmids expressing all of the required PHA biosynthesis enzymes were grown on 50 ml of LB broth containing all three antibiotics supplemented with 0.75% glucose and 0.15% propionate. The tac promoters were induced with IPTG at a final concentration of 0.5 mM. Nalidixic acid was added to a final concentration of 60 μg/ml. The cells were grown under antibiotic selection (see above) for 24 hours and assayed for the presence of PHA polymer. Cells were centrifuged at 7,000 rpm for 20 min., washed with 25 ml methanol, recentrifuged, washed with 15 ml hexane, and recentrifuged. Cell pellets were dried under N2 for two hours, and the dry cell weights determined. 6.5 ml of chloroform were added to extract the PHA at 100° C. for one hour. The solution was cooled and filtered through a PTFE syringe filter (13 mm diameter, 0.45 μm pore). The PHA was precipitated by the addition of 50 ml of methanol, centrifuged, and washed with hexane. The polymer was dried at 70° C. for two hours, and polymer weight was determined. Methanolysis was performed by dissolving 3-5 mg of PHA sample by the addition of 1 ml of CHCl3, with methyl benzoate as an internal standard for normalization of the data. […] The solution was then analyzed by gas chromatography as described in the section entitled “In vivo Analysis of Cloned E. coli ilvA Genes”.

[1] = tested on: A. eutrophus PhbA and BktB β-ketothiolases; assay: β-Ketothiolase condensation assay with 1-14C-acetyl-CoA (PhbA, BktB); assay type: biochemical; conditions: 0.30 mM acetyl-CoA
Excerpt: As noted above, A. eutrophus can produce P(3HB-co-3HV) copolymer when provided with an appropriate C5 precursor. […] One of these β-ketothiolases, designated BktB herein, was encoded on plasmid pBK6. A. eutrophus BktB was obtained from E. coli DH5α transformed with plasmid pMON25754. pMON25754 was produced from the A. eutrophus pBK6 clone (Slater et al., 1988) by deleting a 5.0 kb XhoI fragment (there is an additional XhoI site approximately 5.0 kb 5′ to the XhoI site shown in FIG. 1 of Slater et al.). The pBK6 clone was produced by Slater et al. (1988) from A. eutrophus H16, i.e., ATCC accession number 17699, which is publicly available from the American Type Culture Collection, 12301 Parklawn Drive, Rockville, Md. 20852. BktB was overexpressed from its native promoter on the high copy plasmid pMON25754 by growing the cells overnight at 37° C. to stationary phase in LB broth containing ampicillin (100 μg/ml). A. eutrophus PhbA was obtained from E. coli DH5α transformed with pMON25636 (FIG. 20) by growing the cells at 37° C. in LB broth containing ampicillin (100 μg/ml) to early log phase and then inducing with IPTG. Cells were harvested after two hours of further growth.
The activity of β-ketothiolases can be assayed in both the condensation and thiolysis directions. However, condensation activity for products that are the result of a mixed condensation of acetyl-CoA and a longer chain acyl-CoA are difficult to measure. This is due to the difficulty in distinguishing between acetoacetyl-CoA, the product of condensing two acetyl-CoA molecules, and the mixed condensation reaction product, both of which form simultaneously. To date, condensation assays have been spectrophotometrically-based, but these are valid only when there is a single acyl-CoA substrate present (i.e., acetyl-CoA) since they cannot discriminate between the products formed. The assay described below represents the first reported assay that permits complete quantitation of all condensation products regardless of the nature of starting substrates.
β-ketothiolase assays designed to measure the condensation activity with acetyl-CoA plus either propionyl-CoA or butyryl-CoA were performed using 1-^14C-labelled acetyl-CoA. Since the equilibrium for the reaction lies heavily toward the starting acyl-CoAs rather than the condensed β-ketoacyl-CoA product, the latter was “pulled” to the corresponding β-hydroxyacyl-CoA using NADH and β-ketoacyl-CoA dehydrogenase. In addition, to avoid the strong feedback inhibition of β-ketothiolase by free CoA, each assay solution contained 5,5′-dithio-bis(2-nitrobenzoic acid) (DTNB) to trap chemically the free CoA produced by the reaction.
The condensation assay mixture (0.5 ml final volume) contained 100 mM KPi, pH 7.8, 0.5 mM NADH, 0.30 mM 1-^14C-acetyl-CoA (0.15 μCi), 5 units β-ketoacyl-CoA dehydrogenase, 0.5 mM DTNB, and variable propionyl- or butyryl-CoA as indicated in Table 5. The reaction was initiated by the addition of β-ketothiolase. Following 20 minutes at 30° C., each reaction mixture was quenched by the addition of 25 μl of 10% formic acid. Thirty μl of 25% H2SO4 were added to 200 μl of quenched reaction mix; this mixture was then incubated at 70° C. for 24 hours to hydrolyze all CoA thioesters to their free acids. Sixty μl of 5 M sodium formate were added to the sample to neutralize the pH, followed by analysis of a 130 μl aliquot using C18-reverse-phase HPLC (0.5×25 cm column). Detection and quantitation were carried out by monitoring flow-through with a Radiomatic flow detector. A gradient elution was employed using aqueous 1% acetic acid (solvent A) and acetonitrile (solvent B). […]

[2] = Storage stability of purified BktB; assay type: physicochemical; conditions: 10 mM Tris-HCl, pH 7.8, 1 mM DTT, 50% glycerol at −20° C.
Method: Purified BktB protein was prepared by growing E. coli EE36 transformed with pMON25754 in LB broth containing ampicillin (100μg/ml) overnight at 37° C. Cells were then harvested by centrifugation, and the pellet was resuspended in 50 mM KPi and 5% glycerol, sonicated, and the sonicate centrifuged to remove cellular debris. The cell extract was desalted using a PD-10 column (Pharmacia), and proteins resolved using a Pharmacia FPLC system and MonoQ anion-exchange column (Pharmacia). Buffer A was 10 mM Tris buffer, pH 7.8, plus 1 mM DTT; buffer B was buffer A plus 1 M KCl. The gradient was 0 to 10% B in 10 min, then to 35% B in 40 min. The flow rate was 1 ml/min, and the resolved proteins were collected at the rate of 1 ml/fraction. The BktB protein was found in fractions 20 to 27, with the maximum activity peak at fraction 23. […] The enzyme was stored in 10 mM Tris-HCl, pH 7.8, 1 mM DTT, 50% glycerol at −20° C.

B1: BktB: A. eutrophus β-ketothiolase encoded on pBK6, amino acid sequence SEQ ID NO:11 (protein, listed as Alcaligenes eutrophus)
chain: MTREVVVVSGVRTAIGTFGGSLKDVAPAELGALVVREALARAQVSGDDVGHVVFGNVIQTEPRDMYLGRVAAVNGGVTINAPALTVNRLCGSGLQAIVSAAQTILLGDTDVAIGGGAESMSRAPYLAPAARWGARMGDAGLVDMMLGALHDPFHRIHMGVTAENVAKEYDISRAQQDEAALESHRRASAAIKAGYFKDQIVPVVSKGRKGDVTFDTDEHVRHDATIDDMTKLRPVFVKENGTVTAGNASGLNDAAAAVVMMERAEAERRGLKPLARLVSYGHAGVDPKAMGIGPVPATKIALERAGLQVSDLDVIEANEAFAAQACAVTKALGLDPAKVNPNGSGISLGHPIGATGALITVKALHELNRVQGRYALVTMCIGGGQGIAAIFERI
greater percentage of the C5 monomer than cells expressing the PhbA β-ketothiolase (E. coli DH5α cells): five-to-six-fold | % Turnover C4 Product ([1]; butyryl-CoA 0.6 mM): 1.0% | % Turnover C6 Product ([1]; butyryl-CoA 0.6 mM): 4.9% | % Turnover C4 Product ([1]; butyryl-CoA 1.2 mM): 0.6% | % Turnover C6 Product ([1]; butyryl-CoA 1.2 mM): 7.3% | % Turnover C4 Product ([1]; butyryl-CoA 2.4 mM): 0.4% | % Turnover C6 Product ([1]; butyryl-CoA 2.4 mM): 7.9% | % Turnover C4 Product ([1]; propionyl-CoA 0 mM): 4.2% | % Turnover C4 Product ([1]; propionyl-CoA 0.6 mM): 1.8% | % Turnover C5 Product ([1]; propionyl-CoA 0.6 mM): 13.2% | % Turnover C4 Product ([1]; propionyl-CoA 1.2 mM): 1.0% | % Turnover C5 Product ([1]; propionyl-CoA 1.2 mM): 15.6% | % Turnover C4 Product ([1]; propionyl-CoA 2.4 mM): 0.7% | % Turnover C5 Product ([1]; propionyl-CoA 2.4 mM): 17.8% | stability of activity on storage [2]: Activity remained constant for a minimum of two months
